Paper PMC12082725

Biological target: SARS-CoV-2 nucleocapsid protein (NP), full length (SARS-CoV-2, UniProt P0DTC9 1-419)
Assay: BLI

With UCUAAACGAAC (ssRNA) [11-mer 5' TRS-derived RNA] the Kd was 3.83 ± 0.04 nM.
